± gives the uncertainty stated by the source.
Experiment: self-splicing fitness, log relative to wild type (ln ratio); higher = more splicing; Tetrahymena group I intron in knt gene, E. coli kanamycin selection, DiMSum; sequences stand for … in CUCUCU…GGAGGGAAAAGUUAUCAGGCAUGCACCUGGUAGCUAGUCUUUAAACCAAUAGAUUGCAUCGGUUUAAAAGGCAAGACCGUCAAAUUGCGGGAAAGGGGUCAACAGCCGUUCAGUACCAAGUCUCAGGGGAAACUUUGAGAUGGCCUUGCAAAGGGUAUGGUAAUAAGCUGACGGACAUGGUCCUAACCACGCAGCCAAGUCCUAAGUCAACAGAUCUUCUGUUGAUAUGGAUGCAGUUCACAGACUAAAUGUCGGUCGGGGAAGAUGUAUUCUUCUCAUAAGAUAUAGUCGGACCUCUCCUUAAUGGGAGCUAGCGGAUGAAGUGAUGCAACACUGGAGCCGCUGGGAACUAAUUUGUAUGCGAAAGUAUAUUGAUUAGUUUUGGAGUACUCGUGGUCG
Method in brief: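 Pooled colonies went to amplicon sequencing on an Illumina HiSeq 2500 after six replicate transformations. The plates were LB agar with 100 μg/mL carbenicillin, 50 μM IPTG and 0.2% rhamnose, with or without 25 μg/mL kanamycin, incubated overnight at 37°C or 30°C. The E. coli BL21(DE3) library had all eight P1ex-region intron nucleotides randomised, the intron placed in the knt kanamycin-resistance gene on pET-22b(+). DiMSum fitness is the error-weighted combination of replicate fold changes, kanamycin against none, normalised to wild type.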

Sequence	self-splicing fitness (ln) (37 °C)	self-splicing fitness (ln) (30 °C)
CGAGAGCAAUAUUACGGCAA	-2.79 ± 0.48	–
CGAGAGCAAUAUUACGGCCG	-1.02 ± 0.3	-3.76 ± 0.43
CGAGAGCAAUAUUACGGCUG	-1.14 ± 0.17	-1.18 ± 0.13
CGAGAGCAAUAUUACGGGAG	-0.597 ± 0.16	-2.83 ± 0.16
CGAGAGCAAUAUUACGGGGG	-3.14 ± 0.47	-3.83 ± 0.43
CGAGAGCAAUAUUACGGGGU	-2.27 ± 0.37	-2.86 ± 0.37
CGAGAGCAAUAUUACGUAAG	-1.26 ± 0.15	-2.59 ± 0.13
CGAGAGCAAUAUUACGUAUA	–	-4.06 ± 0.36
CGAGAGCAAUAUUACGUAUU	-1.4 ± 0.28	-2.53 ± 0.28
CGAGAGCAAUAUUACGUCUC	-3.17 ± 0.35	-3.03 ± 0.22
CGAGAGCAAUAUUACGUGGU	-3.2 ± 0.37	–
CGAGAGCAAUAUUACGUUAU	-2.8 ± 0.28	-3.57 ± 0.28
CGAGAGCAAUAUUACGUUGG	-2.48 ± 0.22	-3.78 ± 0.3
CGAUAGCAAUAUUACGACGA	-0.547 ± 0.15	-1.5 ± 0.17
CGAUAGCAAUAUUACGACGG	0.424 ± 0.14	0.185 ± 0.098
CGAUAGCAAUAUUACGACGU	0.0313 ± 0.07	-0.903 ± 0.065
CGAUAGCAAUAUUACGAGGU	-3.01 ± 0.34	-2.8 ± 0.22
CGAUAGCAAUAUUACGAUGA	-0.503 ± 0.2	-1.8 ± 0.17
CGAUAGCAAUAUUACGAUGC	-1.81 ± 0.15	-4.1 ± 0.21
CGAUAGCAAUAUUACGCCCA	0.585 ± 0.16	-1.46 ± 0.28
CGAUAGCAAUAUUACGCCGC	-1.3 ± 0.47	-3.37 ± 0.37
CGAUAGCAAUAUUACGCGUU	-2.51 ± 0.22	-3.13 ± 0.24
CGAUAGCAAUAUUACGGACG	-0.734 ± 0.11	-1 ± 0.085
CGAUAGCAAUAUUACGGAGA	-2.4 ± 0.29	-3.98 ± 0.42

Sequence	self-splicing fitness (ln) (37 °C)	self-splicing fitness (ln) (30 °C)
CGAUAGCAAUAUUACGGCAG	-0.344 ± 0.12	-0.958 ± 0.087
CGAUAGCAAUAUUACGGGAC	-2.42 ± 0.27	-4.19 ± 0.36
CGAUAGCAAUAUUACGGGUA	-2.64 ± 0.2	-3.87 ± 0.4
CGAUAGCAAUAUUACGGUGC	-2.23 ± 0.24	-3.57 ± 0.3
CGAUAGCAAUAUUACGUAGA	-1.3 ± 0.13	-3.31 ± 0.17
CGAUAGCAAUAUUACGUAUU	-2.61 ± 0.24	-3.53 ± 0.25
CGAUAGCAAUAUUACGUGCG	-1.04 ± 0.1	-2.23 ± 0.089
CGCAAGCAAUAUUACGACAC	-0.474 ± 0.22	-2.89 ± 0.29
CGCAAGCAAUAUUACGACUG	-0.47 ± 0.12	-0.662 ± 0.097
CGCAAGCAAUAUUACGAGCC	-0.349 ± 0.12	-1.07 ± 0.095
CGCAAGCAAUAUUACGAUAG	0.36 ± 0.092	-0.276 ± 0.066
CGCAAGCAAUAUUACGAUAU	-1.91 ± 0.13	-2.7 ± 0.14
CGCAAGCAAUAUUACGCCAA	-3.03 ± 0.35	-2.12 ± 0.27
CGCAAGCAAUAUUACGCGAU	-3.83 ± 0.42	-3.15 ± 0.22
CGCAAGCAAUAUUACGCGUU	-2.86 ± 0.15	-3.9 ± 0.15
CGCAAGCAAUAUUACGCUGC	-2.41 ± 0.3	-2.59 ± 0.33
CGCAAGCAAUAUUACGCUGU	-1.48 ± 0.16	-3.81 ± 0.24
CGCAAGCAAUAUUACGGCCC	-1.23 ± 0.26	-1.17 ± 0.24
CGCAAGCAAUAUUACGGCUA	-0.556 ± 0.076	-1.15 ± 0.063
CGCAAGCAAUAUUACGGGAC	-2.52 ± 0.29	-3.18 ± 0.31
CGCAAGCAAUAUUACGGGCC	-1.02 ± 0.17	-1.55 ± 0.12
CGCAAGCAAUAUUACGGGGC	-2.6 ± 0.15	-3.65 ± 0.17
CGCAAGCAAUAUUACGGGGG	-1.12 ± 0.13	-3.39 ± 0.18
CGCAAGCAAUAUUACGGUCG	-0.33 ± 0.1	-2.32 ± 0.11

Source: the supplement of paper PMC7877785
